Reference: article PMC6811539, “Minute-scale persistence of a GPCR conformation state triggered by non-cognate G protein interactions primes signaling” (Nature Communications, 2019)
Where no end group is shown, it is not given here. The star is where a group is joined. Biotin = O=C1N[C@H]2[C@H](CS[C@H]2CCCCC(=O)*)N1

B1: biotinylated Qp (peptide)
peptide: Biotin-DTENIRFVFAAVKDTILQLNLKEYNLV
notes: Gαq C-terminal α5 peptide (Qp), last 27 residues of Gαq; also called bioQp; bioQP; source: synthetic peptide (GenScript); not shown: biotin, N-terminal, kept

How the values were obtained:
β2-AR-mCerulean [1] = target: T1, β2-AR-mCerulean (human, UniProt P07550 1-413); assay: cell-based or functional assay
β2-AR-mCerulean [2] = target: T1, β2-AR-mCerulean; assay: pull-down; binding step of the binding-and-release assay: 30 μM biotinylated Gα peptide and 100 μM isoproterenol mixed 5 min with native membranes (10 nM β2-mCer) in 20 mM HEPES, 100 mM NaCl, 45 mM KCl, 5 mM MgCl2, pH 7.4; complex depleted with streptavidin-coated magnetic beads; unbound receptor from mCer fluorescence of the supernatant; KD estimated from a single point; settings: one partner purified

Binder | activation of endogenous Gs (BODIPY-FL-GTPγS) after fenoterol in native membranes with β2-AR-mCherry, with 30 μM Qp against no peptide (β2-AR-mCerulean [1]) [fold] | Kd (β2-AR-mCerulean [2]) [µM]
DTENIRFVFAAVKDTILQLNLKEYNLV [Qp (Gαq C terminus peptide)] | ~7 | 
B1 |  | > 200
Biotin-DTENIRRVFNDCRDIIQRMHLRQYELL [biotinylated Sp] |  | ~30
